For one experiment, the target named is T1, human TFPI (1-79) (human, UniProt P10646 29-107).
T1 construct: Acidic N-terminal region and KPI-1 domain
Description: SPR Biacore T200; antibody captured on anti-human IgG Fc; TFPI as analyte; 1:1 model. Here is the method: (§1) Binding interaction data were obtained by means of Surface Plasmon Resonance in a Biacore T200 instrument. […] chip (GE Healthcare) in flow-cells 1-4 using the amine coupling protocol available with the Biacore T-200 control software version 2.0 (GE Healthcare) and the reagents provided with the Amine Coupling Kit (GE Healthcare). […] Different concentrations of human TFPIα or TFPI (1-79) were tested by diluting the sample in running buffer (10 mM HEPES, pH 7.4, 300 mM NaCl, 5 mM CaCl₂, 0.05% Surfactant P20, 1 mg/ml BSA). Each sample was assayed using 300 seconds of contact time followed by 420-600 seconds of dissociation time at 30 μl/min flow rate. A buffer blank was also assayed. The sensor surface was regenerated with 10 mM Glycine pH 1.7 either for 180 sec at 30 μl/min flow rate or with two cycles each of 30 seconds at 30 μl/min flow rate.
(§2) The Biacore T200 Evaluation software (version 2.0) was used to analyse the data. Determination of binding constants (kₐ, kd, KD) was obtained assuming a 1:1 interaction of TFPI and the monoclonal antibody of interest.
In general terms: In SPR one partner is held on a chip, and binding of the other changes the refractive index at the surface.

For another experiment, the target named is T2, human TFPIα (human, UniProt P10646 29-304).
T2 construct: recombinant full-length TFPIα in the assays; also called TFPI alpha; full-length TFPIα
Described as above. Here is the method: as §1, §2

The values below come from patent US20160152729A1 (Novo Nordisk, published 2016).

By Kd is commonly meant the free concentration of one partner at which half of the binding sites on the other are occupied at equilibrium, for simple one-to-one binding. A high value points to weaker binding.

B1: mAb 0294 (antibody, human IgG4 S228P, kappa, V domains shown)
VH: QVQLKQSGPGLVQPSQSLSITCTVSGFSLTNYGVHWVRQSPGKGLEWLAVIWRGGSIDYNAAFMSRLSITKDNSKSQVFFKMNSLQADDTAIYYCAKNSHGNYVGYAMDYWGQGTSVTVSS
VL: GIVMTQSQKFMSTTVGDRVSITCKASQSVGPAVAWYQQKPGQSPKLLIYSASNRYTGVPDRFTGSGSGADFTLTISNLHSEDLADYFCQQYTSYPTFGGGTKLEIKR
notes: Murine-human chimera of mAb 2F22, human IgG4 (S241P) constant region, human kappa; also called chimeric mAb 2F22
For the molecule B1, the Kd with human TFPI (1-79) worked out at 0.27 nM; with human TFPIα, 0.46 nM.
